Source: ChEMBL document CHEMBL1240325, “Non-heme dioxygenases: cellular sensors and regulators jelly rolled into one?” (Nat Chem Biol, 2007)

Experiments:
[1] = substrate: O=O; assay: (§1) Activity of collagen prolyl 4 hydroxylase-1
[2] = substrate: O=C(O)CCC(=O)C(=O)O; assay: as §1
[3] = substrate: O=C1O[C@H]([C@@H](O)CO)C(O)=C1O; assay: as §1
[4] = substrate: O=O; assay: (§2) Activity of HIF prolyl hydroxylase-3
[5] = substrate: O=C(O)CCC(=O)C(=O)O; assay: as §2
[6] = substrate: O=C1O[C@H]([C@@H](O)CO)C(O)=C1O; assay: as §2
[7] = substrate: O=O; assay: (§3) Activity of FIH-1
[8] = substrate: O=C(O)CCC(=O)C(=O)O; assay: as §3
[9] = substrate: O=C1O[C@H]([C@@H](O)CO)C(O)=C1O; assay: as §3
[10] = substrate: O=O; assay: (§4) Activity of HIF prolyl hydroxylase-2
[11] = substrate: O=C(O)CCC(=O)C(=O)O; assay: as §4
[12] = substrate: O=C1O[C@H]([C@@H](O)CO)C(O)=C1O; assay: as §4

B1: Prolyl 4-hydroxylase subunit alpha-1 (Homo sapiens), P13674 (protein)
chain: MIWYILIIGILLPQSLAHPGFFTSIGQMTDLIHTEKDLVTSLKDYIKAEEDKLEQIKKWAEKLDRLTSTATKDPEGFVGHPVNAFKLMKRLNTEWSELENLVLKDMSDGFISNLTIQRQYFPNDEDQVGAAKALLRLQDTYNLDTDTISKGNLPGVKHKSFLTAEDCFELGKVAYTEADYYHTELWMEQALRQLDEGEISTIDKVSVLDYLSYAVYQQGDLDKALLLTKKLLELDPEHQRANGNLKYFEYIMAKEKDVNKSASDDQSDQKTTPKKKGVAVDYLPERQKYEMLCRGEGIKMTPRRQKKLFCRYHDGNRNPKFILAPAKQEDEWDKPRIIRFHDIISDAEIEIVKDLAKPRLRRATISNPITGDLETVHYRISKSAWLSGYENPVVSRINMRIQDLTGLDVSTAEELQVANYGVGGQYEPHFDFARKDEPDAFKELGTGNRIATWLFYMSDVSAGGATVFPEVGASVWPKKGTAVFWYNLFASGEGDYSTRHAACPVLVGNKWVSNKWLHERGQEFRRPCTLSELE
Question: For B1, which Km [1] is on record?
Answer: The Km was 40 µM.

Question: And the Km [2]?
Answer: Its Km is 20 µM.

Question: And the Km [3]?
Answer: Its Km is 300 µM.

B2: Prolyl hydroxylase EGLN3 (Homo sapiens), Q9H6Z9 (protein)
chain: MPLGHIMRLDLEKIALEYIVPCLHEVGFCYLDNFLGEVVGDCVLERVKQLHCTGALRDGQLAGPRAGVSKRHLRGDQITWIGGNEEGCEAISFLLSLIDRLVLYCGSRLGKYYVKERSKAMVACYPGNGTGYVRHVDNPNGDGRCITCIYYLNKNWDAKLHGGILRIFPEGKSFIADVEPIFDRLLFFWSDRRNPHEVQPSYATRYAMTVWYFDAEERAEAKKKFRNLTRKTESALTED
Question: B2 was tested. Which Km [4] did it give?
Answer: The Km was 230 µM.

Question: And the Km [5]?
Answer: Its Km is 55 µM.

Question: What about the Km [6] of the same protein?
Answer: The Km was 140 µM.

B3: Hypoxia-inducible factor 1-alpha inhibitor (Homo sapiens), Q9NWT6 (protein)
chain: MAATAAEAVASGSGEPREEAGALGPAWDESQLRSYSFPTRPIPRLSQSDPRAEELIENEEPVVLTDTNLVYPALKWDLEYLQENIGNGDFSVYSASTHKFLYYDEKKMANFQNFKPRSNREEMKFHEFVEKLQDIQQRGGEERLYLQQTLNDTVGRKIVMDFLGFNWNWINKQQGKRGWGQLTSNLLLIGMEGNVTPAHYDEQQNFFAQIKGYKRCILFPPDQFECLYPYPVHHPCDRQSQVDFDNPDYERFPNFQNVVGYETVVGPGDVLYIPMYWWHHIESLLNGGITITVNFWYKGAPTPKRIEYPLKAHQKVAIMRNIEKMLGEALGNPQEVGPLLNTMIKGRYN
Question: With B3 as the protein, how does the Km [7] read?
Answer: The Km was 90 µM.

Question: What about the Km [8] of the same protein?
Answer: The Km was 25 µM.

Question: What about the Km [9] of the same protein?
Answer: The Km was 260 µM.

B4: Egl nine homolog 1 (Homo sapiens), Q9GZT9 (protein)
chain: MANDSGGPGGPSPSERDRQYCELCGKMENLLRCSRCRSSFYCCKEHQRQDWKKHKLVCQGSEGALGHGVGPHQHSGPAPPAAVPPPRAGAREPRKAAARRDNASGDAAKGKVKAKPPADPAAAASPCRAAAGGQGSAVAAEAEPGKEEPPARSSLFQEKANLYPPSNTPGDALSPGGGLRPNGQTKPLPALKLALEYIVPCMNKHGICVVDDFLGKETGQQIGDEVRALHDTGKFTDGQLVSQKSDSSKDIRGDKITWIEGKEPGCETIGLLMSSMDDLIRHCNGKLGSYKINGRTKAMVACYPGNGTGYVRHVDNPNGDGRCVTCIYYLNKDWDAKVSGGILRIFPEGKAQFADIEPKFDRLLFFWSDRRNPHEVQPAYATRYAITVWYFDADERARAKVKYLTGEKGVRVELNKPSDSVGKDVF
Question: B4 was tested. Which Km [10] did it give?
Answer: Its Km is 100 µM.

Question: What about the Km [11] of the same protein?
Answer: The Km was 2 µM.

Question: What about the Km [12] of the same protein?
Answer: The Km was 180 µM.
